For assay [1], the target named is human CD3 (TCR/CD3 complex) on T-cells (human) (UniProt P07766). The assay is described as follows: cell-based or functional assay.
For assay [2] the target is unchanged. The assay is described as follows: FACS staining of CD3+ Jurkat cells with polymer fractions.
Assay [3] shares this target. The assay is described as follows: FACS staining of CD3+ Jurkat cells.

In assay [1], “scOKT3-γ?IgM, WT (from UniProt P01871 218-435) (Fc fusion)” showed an IL-2 production of 47 pg/mL; an INF-γ-production of 244 pg/mL; a T-cell proliferation, immobilized Ak [cpm × 10^3] of 4600 cpm; a T-cell proliferation, soluble Ak [cpm × 10^3] of 2600 cpm. In addition, in assay [1], the TNF-α-production was 167 pg/mL.

As for scOKT3-γ?IgM pentamers, the percent of Jurkat cells with positive staining in assay [2] is greater than 90%.

Consider “scOKT3-γ?IgM, WT Monomers (from UniProt P01871 218-435) (Fc fusion)”, for which, in assay [1], the IL-2 production is 52 pg/mL; the INF-γ-production turned out to be 222 pg/mL; the T-cell proliferation, immobilized Ak [cpm × 10^3] came out at 4000 cpm; the T-cell proliferation, soluble Ak [cpm × 10^3] was determined as 1800 cpm. Moreover, the TNF-α-production in assay [1] amounted to 166 pg/mL.

In turn, scOKT3-γ?IgM monomers yielded a percent of Jurkat cells with positive staining in assay [2] of 80%.

In assay [1], monoclonal OKT3 antibody had an IL-2 production of 467 pg/mL; an INF-γ-production of 1380 pg/mL; a T-cell proliferation, immobilized Ak [cpm × 10^3] of 12500 cpm; a T-cell proliferation, soluble Ak [cpm × 10^3] of 9500 cpm. The TNF-α-production in assay [1] is 960 pg/mL. The substance also came in with a percent of Jurkat cells with positive staining in assay [3] greater than 90%.

In assay [1], “scOKT3-γ?IgM, WT Pentamers/hexamers (from UniProt P01871 218-435) (Fc fusion)” showed an IL-2 production of 42 pg/mL; an INF-γ-production of 232 pg/mL; a T-cell proliferation, immobilized Ak [cpm × 10^3] of 3500 cpm; a T-cell proliferation, soluble Ak [cpm × 10^3] of 2100 cpm. Also, in assay [1], the TNF-α-production amounted to 158 pg/mL.

In assay [1], “scOKT3-γ?IgM, C575S Monomers (from UniProt P01871 218-435) (Fc fusion)” showed an IL-2 production of 73 pg/mL; an INF-γ-production of 189 pg/mL; a T-cell proliferation, immobilized Ak [cpm × 10^3] of 3700 cpm; a T-cell proliferation, soluble Ak [cpm × 10^3] of 2400 cpm. The same substance registered a TNF-α-production in assay [1] of 169 pg/mL.

In assay [1], “scOKT3-γ?IgM, C575S (from UniProt P01871 218-435) (Fc fusion)” registered an IL-2 production of 65 pg/mL; an INF-γ-production of 202 pg/mL; a T-cell proliferation, immobilized Ak [cpm × 10^3] of 3300 cpm; a T-cell proliferation, soluble Ak [cpm × 10^3] of 1900 cpm. This substance also showed a TNF-α-production in assay [1] of 149 pg/mL.

Source of the values: patent US20040175786A1.
